Measurements taken from patent US20130089544A1 (AstraZeneca / MedImmune, published 2013).

Legend:
[1] = biological target: T1, human ErbB2, full length, on cells (human, UniProt P04626 23-1255); test: cell-based or functional assay
[2] = biological target: T1, human ErbB2, full length, on cells; test: cell-based or functional assay; remark: listed apart in the source
[3] = biological target: T1, human ErbB2, full length, on cells; test: cell-based or functional assay; remark: listed apart in the source
[4] = biological target: T1, human ErbB2, full length, on cells; test: cell-based or functional assay; remark: listed apart in the source
[5] = biological target: T1, human ErbB2, full length, on cells; test: cell-based or functional assay; remark: listed apart in the source
[6] = biological target: T1, human ErbB2, full length, on cells; test: cell-based or functional assay; remark: listed apart in the source
[7] = biological target: T2, human ErbB2 ECD-myc/His fusion protein (human, UniProt P04626 23-652); test: limited antigen ELISA, 31 ng/ml ErbB2 ECD-myc/His coated, supernatant 1:25
T2 construct: Made in-house in 293T cells; also called hErbB2(ECD)/cMyc-His; huErbB2 (ECD)/c-myc-His; not shown: c-myc/His tag of the pSecTag2Hygro vector
Description: […] […] Antigen-coated plates were washed three times, blocked with 1% non-fat skim milk/PBS for at least 30 minutes at room temperature, and then washed again three times. Each hybridoma line sample was titrated in 1% non-fat skim-milk/PBS 1:3 for 7 points starting from a 1:25 dilution. […] The next day, plates were washed three times and incubated with 50 μl of 400 ng/ml immunopure Goat anti-human IgG (Fc)-HRP (Pierce catalog #31416) for 1 hour at room temperature. Then, the plates were extensively washed and pat dried on paper towel to remove residual HRP in wells. HRP substrate TMB (enhanced K-blue TMB, Neogen catalog #308177) was added to each well and incubated for 30 min. The reaction was stopped by addition of 1N HCl. Optical density at 450 nm was read on a microplate reader (Titerteck Multiskan Ascent).

[8] = biological target: T2, human ErbB2 ECD-myc/His fusion protein; test: SPR, Biacore 2000 medium resolution; mAb captured on goat anti-human IgG, ErbB2(ECD)-cMyc/His injected; 1:1 fit
Description: The binding affinity of eight of the anti-ErbB2 antibodies was measured by medium resolution Biacore. All experiments were performed using a Biacore 2000 instrument.
First, 12 high-density goat α-human IgG antibody surfaces over three CM5 Biacore chips were prepared using routine amine coupling. […] Before each antigen injection cycle, each mAb was captured for six to nine seconds at a 100 μL/min flow rate. A 2-minute wash step followed each capture injection to stabilize each mAb baseline. […] All samples were randomly injected with several mAb capture/buffer inject cycles interspersed for double referencing. […] A flow rate of 100 μL/min. was used for all injection cycles. The data was fit to a 1:1 interaction model using CLAMP.

[9] = biological target: T2, human ErbB2 ECD-myc/His fusion protein; test: SPR, Biacore T100 high resolution; mAb captured on goat anti-human IgG, hHer-2(ECD)cMyc injected; 1:1 fit
Description: All experiments were performed using a Biacore T100 instrument. First, a high-density goat α human IgG antibody (Caltag H10500) surface was prepared over two CM5 Biacore chips using routine amine coupling. Each mAb was diluted in HBS-P running buffer containing 100 μg/ml Bovine serum albumin (BSA).
A capture level protocol was developed for all five mAbs. Before each antigen injection cycle, each mAb was captured for 15 to 30 seconds at a 20 μL/min flow rate. A 5-minute wash step followed each capture injection to stabilize each mAb baseline. […] The samples were prepared in the running buffer described above. All samples were randomly injected with several mAb capture/buffer inject cycles interspersed for double referencing. […] A flow rate of 50 μL/min. was used for all injection cycles.
All sensorgram data were fit to a 1:1 interaction model using CLAMP.

Binder | EC50 (ng/ml) n1, inhibition of Heregulin-induced ErbB2 phosphorylation in MCF7 cells [1] [ng/mL] | EC50 (ng/ml) n2, inhibition of Heregulin-induced ErbB2 phosphorylation in MCF7 cells [1] [ng/mL] | % Inhibition @10 µg/ml, Heregulin-induced MCF7 cell proliferation [2] [%] | EC50 (ng/ml), inhibition of Heregulin-induced MCF7 cell proliferation [2] [ng/mL] | 1 hr pTyr inhibition % (Heregulin-induced ErbB2 phosphorylation in MCF7 cells, hybridoma supernatant) [3] [%] | 24 hr pTyr inhibition % (Heregulin-induced ErbB2 phosphorylation in MCF7 cells, hybridoma supernatant) [3] [%] | N1 % Inhibition @40 µg/ml, BT474 cell proliferation [4] [%] | N1 EC50 (ng/ml), inhibition of BT474 cell proliferation [4] [ng/mL] | N2 % Inhibition @40 µg/ml, BT474 cell proliferation [4] [%] | N2 EC50 (ng/ml), inhibition of BT474 cell proliferation [4] [ng/mL] | % inhibition @36 µg/ml, SKBR3 cell proliferation [5] [%] | EC50 (ng/ml), inhibition of SKBR3 cell proliferation [5] [ng/mL] | % Inhibition @10 µg/ml (n1), ErbB2 phosphorylation in BT474 cells at 48 hours [6] [%] | % Inhibition @10 µg/ml (n2), ErbB2 phosphorylation in BT474 cells at 48 hours [6] [%] | Kd [8] [nM] | koff [8] [s⁻¹] | kon [8] [M⁻¹ s⁻¹] | other results
monoclonal antibody 1.43 (antibody, V domains shown) VH: EVQLVESGGGLVQPGGSLRLSCAASGFTFSSYWMHWVRQTPGKGLEWVANIKQDGSEKYYVDSVKGRFTISRDNAKNSLHLQMNSLRAEDTAAYYCASFRDYGMDVWGQGTTVTVSS VL: DIQMTQSPSSLSASVGDRVTITCRASQGISNHLAWFQQKPGKAPKSLIYGASSLQTGVPSKFSGSGSGTDFTLTISSLQPEDFASYFCQQYKGYPITFGQGTRLEIK | > 10000 | > 10000 | 53 | ~10000 |  |  |  |  |  |  |  |  |  |  |  |  |  | 
monoclonal antibody 1.100.1 (antibody, V domains shown, Fully human IgG (gamma/kappa) from a XenoMouse XM3B-3 hybridoma; constant regions not tied to it; also called 1.100.2; 1.100.3) VH: EVQLVESGGGLVKPGGSLRLSCAASGFTFSSYSMNWVRQAPGKGLEWVSSISSSSSYIYYADSVKGRFTISRDNAKNSLYLQMNSLRAEDTAVYYCARGGDGYNYYYFDYWGQGTLVTVSS VL: DIVMTQSPDSLAVSLGERATITCKSSQSVFFRSNNKNCLAWYQQRPGQPPNLLIYWASTRESGVPDRFSGSGCGTDFTLTISSLQAEDVAVYYCQQYFGSPFTFGPGTKVDIK | 39.9 | 33.7 | 95 | 2040 | 95 | 95 | 35 | 169 | 32 | 91.1 | 54 | 61.3 | 37 | 26 | 2.9 | 0.000301 | 104000 | LA at 31 ng/ml (OD) [7]: 3.54 OD 450 nm
monoclonal antibody 1.20 (antibody, V domains shown, Fully human IgG (gamma/kappa) from a XenoMouse XM3B-3 hybridoma; constant regions not tied to it; also called 1.20.1; 1.19) VH: EVQLVESGGGLVKPGGSLRLSCAASGFTFSSYTMNWVRQAPGKGLEWVSSISSSSSYIYYADSVKGRFTISRDNAKNSLYLQMNSLSAEDTAVYSCARGGDGYNYYYFDYWGQGTLVTVSS VL: DIVMTQSPGSLVVSLGERATITCKSSQSVFFRSNNKNCLAWYQQRPGQSPNLLIYWASTRESGVPDRFSGSGSGTDFTLTISSLQAEDVAVYYCQQYFGSPFTFGPGTKVDIK | 15.5 | 17.4 | 100 | 770 | 91 | 96 | 40 | 85.3 | 37 | 12.8 | 49 | 25.2 | 21 | 28 | 3.6 | 0.000344 | 95000 | 
monoclonal antibody 1.24 (antibody, V domains shown, Fully human IgG (gamma/kappa) from a XenoMouse XM3B-3 hybridoma; constant regions not tied to it; also called 1.24.3) VH: EVQLVESGGGLVKPGGSLRLSCAASGFTFSSYSMNWVRQAPGKGLEWVSSISSSSSYIYYADSVKGRFTISRDNAKNSLYLQMNSLRAEDTAVYYCARGGDGYNYYYFDYWGQGTLVTVSS VL: not shown | 42.9 | 20.4 | 81 | 3020 | 77 | 99 | 24 | 198 | 29 | 74.4 | 37 | 48.5 |  |  | 5.1 | 0.000655 | 128000 | LA at 31 ng/ml (OD) [7]: 2.35 OD 450 nm

Now from value to binder, other results behind:

EC50 (ng/ml) n1, inhibition of Heregulin-induced ErbB2 phosphorylation in MCF7 cells [1] [ng/mL] | EC50 (ng/ml) n2, inhibition of Heregulin-induced ErbB2 phosphorylation in MCF7 cells [1] [ng/mL] | % Inhibition @10 µg/ml, Heregulin-induced MCF7 cell proliferation [2] [%] | EC50 (ng/ml), inhibition of Heregulin-induced MCF7 cell proliferation [2] [ng/mL] | 1 hr pTyr inhibition % (Heregulin-induced ErbB2 phosphorylation in MCF7 cells, hybridoma supernatant) [3] [%] | 24 hr pTyr inhibition % (Heregulin-induced ErbB2 phosphorylation in MCF7 cells, hybridoma supernatant) [3] [%] | N1 % Inhibition @40 µg/ml, BT474 cell proliferation [4] [%] | N1 EC50 (ng/ml), inhibition of BT474 cell proliferation [4] [ng/mL] | N2 % Inhibition @40 µg/ml, BT474 cell proliferation [4] [%] | N2 EC50 (ng/ml), inhibition of BT474 cell proliferation [4] [ng/mL] | % inhibition @36 µg/ml, SKBR3 cell proliferation [5] [%] | EC50 (ng/ml), inhibition of SKBR3 cell proliferation [5] [ng/mL] | % Inhibition @10 µg/ml (n1), ErbB2 phosphorylation in BT474 cells at 48 hours [6] [%] | % Inhibition @10 µg/ml (n2), ErbB2 phosphorylation in BT474 cells at 48 hours [6] [%] | Kd [8] [nM] | koff [8] [s⁻¹] | kon [8] [M⁻¹ s⁻¹] | Binder | other results
14.7 | 22.9 | 91 | 633 |  |  | 39 | 300 | 45 | 70.9 | 44 | 42.7 | 31 | 33 | 3.5 | 0.000333 | 94000 | monoclonal antibody 1.140 (antibody, V domains shown, Fully human IgG (gamma/kappa) from a XenoMouse XM3B-3 hybridoma; constant regions not tied to it; also called 1.124) VH: EVQLVESGGGLVKPGGSLRLSCAASGFTFSSYSMNWVRQAPRKGLEWVSSISSSSSYIYYADSVKGRFTISRDNAKNSLYLQMNSLRAEDTAVYYCARGGDGYNYYYFDYWGQGTLVTVSS VL: not shown | Kd [9]: 10.6 nM; koff [9]: 0.000173 s⁻¹; kon [9]: 16400 M⁻¹ s⁻¹
28.8 | 34 | 98 | 2830 |  |  | 35 | 131 | 29 | 66.3 | 43 | 41.7 | 37 | 30 | 2.6 | 0.000273 | 103000 | monoclonal antibody 1.96 (antibody, V domains shown, Fully human IgG (gamma/kappa) from a XenoMouse XM3B-3 hybridoma; constant regions not tied to it) VH: EVQLVESGGGLVKPGGSLRLSCAASGFTFSSYSMNWVRQAPGKGLEWVSSISSSSSYIYYADSVKGRFTISRDNAKNSLYLQMNSLRAEDTAVYYCARGGDGYNYYYFDYWGQGTLVTVSS VL: DIVMTQSPDSLAVSLGERATITCKSSQSVFFRSNNKNCLAWYQQRPGQPPNLLFYWASTRESGVPDRFSGSGSGTDFTLTISSLQAEDVAVYYCQQYFGSPFTLGPGTKVDIK | Kd [9]: 11.6 nM; koff [9]: 0.000194 s⁻¹; kon [9]: 16800 M⁻¹ s⁻¹
> 10000 |  |  | > 10000 |  |  |  |  |  |  |  |  |  |  |  |  |  | monoclonal antibody 1.71.3 (antibody, V domains shown) VH: EVQLVESGGGLVQPGGSLRLSCTASGFPFSSYDMHWVRQATGKGLEWVSAIGTAGDTFYPGSVKGRFTISRENAKNSLYLQMNSLRAGDTAVYYCAREGYSSGRYFYYGMDVWGQGTTVTVSS VL: not shown | 
